In PMC7591920, “A protein tertiary structure mimetic modulator of the Hippo signalling pathway” (Nature Communications, 2020):

Columns and labels:
[1] = target: GST-hTEAD1(209–426) (human) (UniProt P28347); assay: not stated; values of Supplementary Table 1; the method is not given
[2] = target: mouse TEAD4(210–427), as purified (SPR) (mouse) (UniProt Q62296); assay: as above
Sequence of mouse TEAD4(210–427), as purified (SPR) (mouse) (Q62296 210-427): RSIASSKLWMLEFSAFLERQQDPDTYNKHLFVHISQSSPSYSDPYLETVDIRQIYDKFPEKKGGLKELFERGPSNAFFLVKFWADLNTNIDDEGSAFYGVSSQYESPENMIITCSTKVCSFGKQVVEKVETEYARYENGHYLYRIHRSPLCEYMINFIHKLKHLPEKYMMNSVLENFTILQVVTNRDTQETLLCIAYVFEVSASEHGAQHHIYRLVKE

Kd [1]: 17 µM | Kd [2]: 12 µM
Substance: VGL4 two-helix motif peptide with K250 varied to alanine (from UniProt Q80V24 203-256)
